# In US20260250418A1 (BIOCYTOGEN PHARMACEUTICALS BEIJING, published 2026):
# Changes are numbered by the printed parent chain.
# T1: monkey (Macaca fascicularis) HER3 on CHO-fasHER3 cells (monkey (Macaca fascicularis), UniProt P21860 20-643 (human entry))
# T1 construct: CHO-S cells transfected with fasHER3
# T1 chain: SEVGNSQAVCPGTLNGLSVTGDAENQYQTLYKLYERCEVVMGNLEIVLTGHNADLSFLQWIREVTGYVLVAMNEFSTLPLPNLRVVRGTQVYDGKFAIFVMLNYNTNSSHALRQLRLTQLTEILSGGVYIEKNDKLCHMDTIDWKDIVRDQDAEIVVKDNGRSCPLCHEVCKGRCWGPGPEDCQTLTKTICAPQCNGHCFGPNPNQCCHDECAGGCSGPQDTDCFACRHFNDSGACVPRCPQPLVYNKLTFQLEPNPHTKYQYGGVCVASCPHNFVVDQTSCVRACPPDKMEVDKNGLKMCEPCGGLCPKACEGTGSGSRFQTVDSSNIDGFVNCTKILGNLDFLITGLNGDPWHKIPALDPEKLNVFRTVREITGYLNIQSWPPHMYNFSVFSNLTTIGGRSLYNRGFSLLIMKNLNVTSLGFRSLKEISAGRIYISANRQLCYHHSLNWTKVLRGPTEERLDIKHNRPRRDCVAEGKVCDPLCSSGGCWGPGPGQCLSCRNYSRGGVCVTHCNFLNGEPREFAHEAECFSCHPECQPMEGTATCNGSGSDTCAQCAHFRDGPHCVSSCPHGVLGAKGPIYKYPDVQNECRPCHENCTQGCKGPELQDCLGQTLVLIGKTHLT
# B1: anti-HER3/MET bispecific antibody 1C5-8E2 (bispecific antibody, V domains shown)
# VH 1: QVQLVESGGGVVQPGKSLRLSCAASGFTFSRSGMHWVRQAPGKGLEWVALISFDGSNKYYADSVKGRFTISRDNSKNTLNLQMNSLRAEDTAVYYCAKGGFGVVIYDAFDIWGHGTMVTVSS
# VH 2: QVQLVQSGPALVKPTQTLTLTCTFSGFSLYTSGVAVAWIRQPPGKALEWLALIYWDDDKWYTPSLKTRLSITKDTSKNQVVLTMTNMDPVDTATYYCAHRGSFNWNYGYFDYWGQGTLVTVSS
# VL: not shown
# B2: anti-HER3/MET bispecific antibody 1C5-8D9 (bispecific antibody, V domains shown)
# VH 1: B1 VH 1
# VH 2: QVQLQESGPGLVKPSETLSLTCTVSGGSISGHYWSWIRQSPGKGLEWIGYITYSGSTNYNPSLKSRVTISVDTSKNQFSLKLSSVTAADTAVYYCGTIAVAGRVYYYGVDVWGRGTTVTVSS
# VL: not shown
# B3: anti-HER3/MET bispecific antibody 3G6-2F11 (bispecific antibody, V domains shown)
# VH 1: QVQLVQSGPVLVKPTETLTLTCTVSGFSLSNIRMGVSWIRQPPGKALEWLAHIFSNDDKSYSTSLKSRLTISKDTSKSQVVLTMTNVDPVDTATYYCTRMRYSGGPFDYWGQGTLVTVSS
# VH 2: EVQLVESGPGLVKPSETLSLTCTVSGGSISSNYWSWIRQPPGKGLEWIGYIYHSGSTNYNPSLKSRVTISVDTSKNQFSLKLSSVTAADTAVYFCARGPVSIFGVVKYIDLWGRGTLVTVSS
# VL: not shown
# B4: anti-HER3/MET bispecific antibody 3G6-8E2 (bispecific antibody, V domains shown)
# VH 1: B3 VH 1
# VH 2: B1 VH 2
# VL: not shown
# B5: anti-HER3/MET bispecific antibody 3E1-8D9 (bispecific antibody, V domains shown)
# VH 1: B3 VH 1 with Q1E, V12A, T63P, S67N, N86T, V87M, V90M, R101K
# VH 2: B2 VH 2
# VL: not shown
# B6: anti-HER3/MET bispecific antibody 3E1-8H10 (bispecific antibody, V domains shown)
# VH 1: B3 VH 1 with Q1E, V12A, T63P, S67N, N86T, V87M, V90M, R101K
# VH 2: QVQLQQWGAGLLKPSETLSLTCAVYGGSFSGYYWTWIRQPPGKGLEWIGESNHGGSTNFNPSLKSRVTISVDTSKNHFSLKLSPVTAADTAVYYCTRGGTIFGLKDAFDIWGQGTMVTVSS
# VL: not shown
# B7: anti-HER3/MET bispecific antibody 1B2-8E2 (bispecific antibody, V domains shown)
# VH 1: B3 VH 1 with G26T, I32A, T63P, S78T, V87M, T98S, T114S
# VH 2: B1 VH 2
# VL: not shown
# B8: anti-HER3/MET bispecific antibody 3E1-8E2 (bispecific antibody, V domains shown)
# VH 1: B3 VH 1 with Q1E, V12A, T63P, S67N, N86T, V87M, V90M, R101K
# VH 2: B1 VH 2
# VL: not shown
# B9: anti-HER3/MET bispecific antibody 1B2-8D9 (bispecific antibody, V domains shown)
# VH 1: B3 VH 1 with G26T, I32A, T63P, S78T, V87M, T98S, T114S
# VH 2: B2 VH 2
# VL: not shown
# B10: anti-HER3/MET bispecific antibody 3E1-2F11 (bispecific antibody, V domains shown)
# VH 1: B3 VH 1 with Q1E, V12A, T63P, S67N, N86T, V87M, V90M, R101K
# VH 2: B3 VH 2
# VL: not shown
# B11: anti-HER3/MET bispecific antibody 1B2-2F11 (bispecific antibody, V domains shown)
# VH 1: B3 VH 1 with G26T, I32A, T63P, S78T, V87M, T98S, T114S
# VH 2: B3 VH 2
# VL: not shown
# Molecular target: T2, monkey MET on NIH3T3-fasMET cells (monkey, UniProt A0M8R7 25-1381)
# T2 construct: NIH3T3 cells transfected with a plasmid expressing fasMET
# T2 sequence (A0M8R7 25-1381 S170N/I621T limits assumed): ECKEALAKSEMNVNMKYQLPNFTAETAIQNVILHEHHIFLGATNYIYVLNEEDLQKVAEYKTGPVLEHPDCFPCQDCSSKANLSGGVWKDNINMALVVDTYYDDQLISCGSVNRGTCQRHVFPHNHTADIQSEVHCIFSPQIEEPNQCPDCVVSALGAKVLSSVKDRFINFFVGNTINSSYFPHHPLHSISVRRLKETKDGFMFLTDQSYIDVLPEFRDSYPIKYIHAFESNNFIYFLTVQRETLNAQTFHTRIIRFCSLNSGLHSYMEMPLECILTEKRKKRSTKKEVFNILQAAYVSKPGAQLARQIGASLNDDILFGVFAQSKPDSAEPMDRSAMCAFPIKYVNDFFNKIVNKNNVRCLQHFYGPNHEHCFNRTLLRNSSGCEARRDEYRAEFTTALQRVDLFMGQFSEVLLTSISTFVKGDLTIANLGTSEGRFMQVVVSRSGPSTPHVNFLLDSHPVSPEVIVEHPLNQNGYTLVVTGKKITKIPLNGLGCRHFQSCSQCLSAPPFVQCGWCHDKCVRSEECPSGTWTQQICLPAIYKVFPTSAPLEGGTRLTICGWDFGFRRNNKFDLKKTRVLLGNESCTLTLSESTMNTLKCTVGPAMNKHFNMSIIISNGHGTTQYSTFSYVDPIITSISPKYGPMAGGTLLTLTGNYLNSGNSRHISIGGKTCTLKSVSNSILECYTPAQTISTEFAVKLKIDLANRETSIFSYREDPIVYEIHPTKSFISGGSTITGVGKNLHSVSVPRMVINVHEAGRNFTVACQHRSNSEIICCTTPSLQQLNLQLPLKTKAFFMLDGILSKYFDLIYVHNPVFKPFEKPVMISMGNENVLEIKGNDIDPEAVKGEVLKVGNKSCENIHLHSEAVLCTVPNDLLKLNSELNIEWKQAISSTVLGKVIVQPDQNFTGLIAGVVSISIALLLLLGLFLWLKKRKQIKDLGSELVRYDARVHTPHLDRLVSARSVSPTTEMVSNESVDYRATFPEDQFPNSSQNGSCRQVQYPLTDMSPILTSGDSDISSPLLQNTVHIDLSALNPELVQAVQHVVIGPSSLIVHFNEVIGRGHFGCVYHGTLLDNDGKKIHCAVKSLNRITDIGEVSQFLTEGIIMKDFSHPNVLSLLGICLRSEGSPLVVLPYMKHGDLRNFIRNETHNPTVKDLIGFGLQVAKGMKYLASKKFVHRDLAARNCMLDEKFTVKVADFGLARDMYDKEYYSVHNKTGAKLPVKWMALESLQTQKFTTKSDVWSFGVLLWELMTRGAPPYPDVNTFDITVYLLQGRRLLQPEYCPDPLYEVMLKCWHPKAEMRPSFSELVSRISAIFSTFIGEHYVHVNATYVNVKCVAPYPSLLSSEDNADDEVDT
# Test: flow cytometry, transfected NIH3T3 cells
# Procedure: (§1) Specifically, CHO-hHER3 cells, CHO-fasHER3 cells, NIH3T3-hMET cells or NIH3T3-fasMET cells were transferred to a 96-well plate at a density of 5×10⁴ cells/well respectively. The antibodies were added to the 96-well plate, and incubated at 4° C. for 30 min.
row,Binder,Positive Cells [%]
1,B1,55.1
2,B2,65.1
3,B3,72.9
4,B4,51.6
5,B5,70.2
6,B6,54.6
7,B7,54.3
8,B8,54.8
9,B9,64.9
10,B10,87.3
11,B11,66.4

# Molecular target: T3, human MET on NIH3T3-hMET cells (human, UniProt P08581 25-1390)
# T3 construct: NIH3T3 cells transfected with a plasmid expressing hMET
# T3 sequence (P08581 25-1390 limits assumed): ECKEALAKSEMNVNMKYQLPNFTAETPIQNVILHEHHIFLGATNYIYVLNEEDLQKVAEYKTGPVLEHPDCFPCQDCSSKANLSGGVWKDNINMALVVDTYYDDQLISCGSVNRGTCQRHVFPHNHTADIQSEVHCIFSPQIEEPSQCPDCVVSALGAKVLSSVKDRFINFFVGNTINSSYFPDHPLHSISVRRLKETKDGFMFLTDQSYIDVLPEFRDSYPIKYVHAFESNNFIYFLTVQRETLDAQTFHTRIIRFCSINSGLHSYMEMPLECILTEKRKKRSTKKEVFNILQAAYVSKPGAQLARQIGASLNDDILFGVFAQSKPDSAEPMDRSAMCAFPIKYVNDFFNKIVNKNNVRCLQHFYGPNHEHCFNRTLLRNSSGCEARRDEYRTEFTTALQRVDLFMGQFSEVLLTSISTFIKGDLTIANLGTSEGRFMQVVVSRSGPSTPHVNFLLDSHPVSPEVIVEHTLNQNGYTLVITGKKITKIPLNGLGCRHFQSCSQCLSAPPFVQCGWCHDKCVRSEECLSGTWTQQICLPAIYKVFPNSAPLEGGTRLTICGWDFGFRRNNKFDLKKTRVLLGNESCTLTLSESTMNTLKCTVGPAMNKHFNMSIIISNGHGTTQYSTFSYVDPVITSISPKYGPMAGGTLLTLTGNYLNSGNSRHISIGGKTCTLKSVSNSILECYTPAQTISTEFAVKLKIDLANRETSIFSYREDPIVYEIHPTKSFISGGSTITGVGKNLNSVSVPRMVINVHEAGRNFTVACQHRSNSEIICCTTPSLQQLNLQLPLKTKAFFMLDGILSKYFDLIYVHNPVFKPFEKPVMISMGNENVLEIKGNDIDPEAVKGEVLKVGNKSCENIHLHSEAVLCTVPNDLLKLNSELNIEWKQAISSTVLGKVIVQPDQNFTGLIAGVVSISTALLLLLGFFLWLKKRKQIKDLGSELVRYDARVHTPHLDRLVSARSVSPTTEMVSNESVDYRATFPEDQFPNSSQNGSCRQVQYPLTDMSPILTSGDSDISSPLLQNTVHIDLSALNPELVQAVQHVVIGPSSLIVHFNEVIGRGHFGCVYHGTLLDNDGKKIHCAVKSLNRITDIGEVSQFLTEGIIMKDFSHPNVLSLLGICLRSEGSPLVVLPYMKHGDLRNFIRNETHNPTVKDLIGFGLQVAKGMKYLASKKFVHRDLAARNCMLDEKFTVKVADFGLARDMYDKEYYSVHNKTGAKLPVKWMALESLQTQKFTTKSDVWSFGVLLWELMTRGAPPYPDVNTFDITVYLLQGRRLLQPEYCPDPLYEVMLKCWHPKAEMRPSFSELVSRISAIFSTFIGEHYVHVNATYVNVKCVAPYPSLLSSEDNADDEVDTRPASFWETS
# Test: flow cytometry, transfected NIH3T3 cells
# Procedure: as §1
row,Binder,Positive Cells [%]
1,B1,99.6
2,B2,99.8
3,B3,99.8
4,B4,99.6
5,B5,99.9
6,B6,99.7
7,B7,99.6
8,B8,99.5
9,B9,99.8
10,B10,99.8
11,B11,99.8

# Molecular target: T4, human HER3 on CHO-hHER3 cells (human, UniProt P21860 20-643)
# T4 construct: CHO-S cells transfected with hHER3
# Test: flow cytometry, transfected CHO cells
# Procedure: as §1
row,Binder,Positive Cells [%]
1,B1,56.9
2,B2,64.8
3,B3,47.3
4,B4,55.2
5,B5,59
6,B6,72.1
7,B7,56.3
8,B8,58.4
9,B9,54
10,B10,56.4
11,B11,51.4

# Molecular target: T1, monkey (Macaca fascicularis) HER3 on …
# Test: flow cytometry, transfected CHO cells
# Procedure: as §1
row,Binder,Positive Cells [%]
1,B1,55.1
2,B2,60.4
3,B3,56
4,B4,58.4
5,B5,58.6
6,B6,66
7,B7,61.4
8,B8,63.9
9,B9,55.5
10,B10,50.3
11,B11,56.3

# Molecular target: T5, His-tagged human MET (hMET, Sino Biological, Inc., Cat #: 10692-H08H) (human, UniProt P08581 25-932)
# T5 construct: Bought protein; not shown: His tag
# T5 sequence (P08581 25-932 limits assumed): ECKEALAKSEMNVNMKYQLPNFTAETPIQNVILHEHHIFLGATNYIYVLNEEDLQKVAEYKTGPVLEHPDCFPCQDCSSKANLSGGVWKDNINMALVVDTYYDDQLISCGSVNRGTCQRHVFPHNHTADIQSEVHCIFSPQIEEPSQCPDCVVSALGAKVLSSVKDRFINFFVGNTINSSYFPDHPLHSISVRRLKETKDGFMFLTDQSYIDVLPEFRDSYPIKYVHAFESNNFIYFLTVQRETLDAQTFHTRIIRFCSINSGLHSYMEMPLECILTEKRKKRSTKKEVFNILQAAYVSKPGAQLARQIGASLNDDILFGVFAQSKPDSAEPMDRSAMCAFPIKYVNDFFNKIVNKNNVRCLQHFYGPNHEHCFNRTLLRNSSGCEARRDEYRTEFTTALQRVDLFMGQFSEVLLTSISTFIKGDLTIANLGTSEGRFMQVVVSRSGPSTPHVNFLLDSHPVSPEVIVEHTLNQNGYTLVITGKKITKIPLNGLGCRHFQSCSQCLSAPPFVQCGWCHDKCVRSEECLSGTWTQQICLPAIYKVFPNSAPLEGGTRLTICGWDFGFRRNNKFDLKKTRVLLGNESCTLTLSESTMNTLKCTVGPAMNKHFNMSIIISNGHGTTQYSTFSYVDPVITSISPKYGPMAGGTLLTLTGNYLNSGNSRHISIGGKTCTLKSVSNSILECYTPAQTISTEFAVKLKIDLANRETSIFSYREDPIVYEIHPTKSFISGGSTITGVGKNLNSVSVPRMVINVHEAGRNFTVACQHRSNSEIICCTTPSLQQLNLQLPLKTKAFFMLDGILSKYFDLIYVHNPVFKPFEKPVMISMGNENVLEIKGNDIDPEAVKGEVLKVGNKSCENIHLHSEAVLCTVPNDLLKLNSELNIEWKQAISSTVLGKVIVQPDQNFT
# Test: SPR, Ab captured on Protein A, antigen 400 nM
# Procedure: (§2) Purified antibodies were captured on the Protein A chip (Series S Sensor Chip Protein A) for the detection. 2 μg/mL antibodies were loaded at 10 μL/min to bind to hHER3, fasHER3, hMET or fasMET (400 and 0 nM). The flow rate was 30 μL/min, the binding and dissociation time were set to 180 s and 400 s, respectively. The chip was regenerated after the last injection of each titration with a glycine solution ([…]) at 30 μL/min for 30 seconds.
Binder,Kd [nM],koff [s⁻¹],kon [M⁻¹ s⁻¹]
B1,18,0.00122,68000
B2,22.5,0.000531,23600
B3,50.7,0.00256,50500
B4,14.8,0.00113,
B5,21.8,0.00051,23400
B6,12.7,0.00516,408000
B7,14,0.000998,71400
B8,16.9,0.0012,71100
B9,35.7,0.000973,27200
B10,43.1,0.00285,66100
B11,40.4,0.00255,63200

# Molecular target: T6, His-tagged human HER3 protein (hHER3, ACRO Biosystems Inc., Cat #: ER3-H5223) (human, UniProt P21860 20-643)
# T6 construct: Bought protein; also called hHER3-His; not shown: His tag
# Test: SPR, Ab captured on Protein A, antigen 400 nM
# Procedure: as §2
Binder,Kd [nM],koff [s⁻¹],kon [M⁻¹ s⁻¹]
B1,32.7,0.000777,23700
B2,31.1,0.000605,19400
B3,47.4,0.0106,224000
B4,38.9,0.0101,
B5,15,0.00341,227000
B6,14.5,0.00332,229000
B7,13.8,0.00252,183000
B8,13.2,0.0035,266000
B9,16.7,0.00262,157000
B10,14.8,0.00342,231000
B11,16.1,0.00253,157000

# Molecular target: T7, His-tagged monkey HER3 protein (fasHER3, Sino Biological, Inc., Cat #: 90043-K08H) (monkey)
# T7 construct: Bought protein
# Test: SPR, Ab captured on Protein A, antigen 400 nM
# Procedure: as §2
Binder,Kd [nM],koff [s⁻¹],kon [M⁻¹ s⁻¹]
B1,92.5,0.000844,9120
B2,97,0.000671,6920
B3,90.2,0.0103,114000
B4,67.2,,
B5,33.1,0.00322,97300
B6,32.2,0.00318,98700
B7,31.5,0.0025,79300
B8,29,0.00329,113000
B9,38.9,0.00261,67100
B10,33.7,0.00325,96400
B11,38.9,0.00255,65600
